Paper PMC3836757

Legend:
[1] = biological target: RNA polymerase core enzyme;sigma 32 (RpoH) (Escherichia coli;Ehrlichia chaffeensis) (UniProt P0A7Z4+P0A8V2+P0A8T7+P0A800+Q2GGG9); test: EMSA; details: 50 mM Tris-acetate pH 8.0, 50 mM K-acetate, 8.1 mM Mg-acetate, 27 mM NH4-acetate, 100 ug/ml BSA, 5% glycerol, 50 ug/ml poly(dI-dC), 20 fmol each probe and RNAP …
[2] = biological target: RNA polymerase core enzyme;sigma 70 (RpoD) (Escherichia coli;Ehrlichia chaffeensis) (UniProt P0A7Z4+P0A8V2+P0A8T7+P0A800+Q2GG75); test: EMSA; details: 50 mM Tris-acetate pH 8.0, 50 mM K-acetate, 8.1 mM Mg-acetate, 27 mM NH4-acetate, 100 ug/ml BSA, 5% glycerol, 50 ug/ml poly(dI-dC), 20 fmol each probe and RNAP …

Sequence | binding [1] | binding [2]
AAGCAAGTCTACTCATATTTTTATTAATTAAGTAGTAAAGTTAACTATAGATTTTATTAAAATTTTTATTCTAATCACTTTAAATATCAATTACTTTTGTTGTAAATTTGAAAGAAATTTTATATTCTAGACTTGCTTTTCTTTATTTCTTTCATTATTCTTAAATTTTTATTATCTTTTATAAAAGGTTTATTAACATG (double strand) [p28-Omp14 promoter probe] | binds more weakly | binds
ATTGCAGATTAATTAATAATGCTTTAAGTAATAACAAATAAATTTAGTTGACTATATGAACTAACCTAATATCCTAAATCTTGTTCAGTTATGTAAAATTAGGAGTTAAAATTA (double strand) [hup promoter probe] | binds more weakly | binds
CTGACGTAATATATTAAATTTTCCTTACAAAAGTTACCGATATTTTATACAAAAATTTATATTCTGACTTGCTTTTATATGACACTTCTACTATTGTTAATTTATTTGTCACTATTAGGTTATATATGAATTACA (double strand) [p28-Omp19 promoter probe] | binds more weakly | binds
TAACTTACTTAAAAAATTAACTACTTAAATATCAACGATGTTTTCAGTATCAAGTCAATTGATTTTTTATGTGTTATGTAAACTGTTACAGAGTAATATAATATTTCTACTGGGTCCTATAAAGTTCTAACCTTGTAAACATTTGTGCAATATGTATTATAAAATTTATTGATTGATACTTGAAATTAGATTTCTTGATATTATATATGATCTTAGCTAGTAGTATCTGATGCTACTGATAATTTATTTTTTTATAGAGGTAG (double strand) [groE promoter probe] | binds | 
TTCATAAATTTATGAACTTGTGTTAAATGGGGTTGTAATCTTATGATTTGGTTATTATATCTGTGATTATAGTTTTGATTTTTATGTAAGGGGGCTATTTATGGCTGTTATAGGTATAGATTTAGGTAC (double strand) [dnaK promoter probe] | binds | 
